From patent US20170101477A1 come the findings set out here.

Assay [1] deals with extracellular domain portion of LEPR protein expressed with a C-terminal human Fc tag (hLEPR.hFc) (human). The experiment in a line: ELISA, 500 nM Ab, 10 nM hLEPR.hFc to coated hLeptin.
Assay [2] has as its target human LEPR extracellular domain expressed with a C-terminal myc-myc-hexahistidine tag (hLEPR.mmh) (human) (UniProt P48357). The experiment in a line: Luminex, myc-captured LEPR protein.
The target of assay [3] is human LEPR CRH1-Ig (D2,D3)-MMH (human) (UniProt P48357). The experiment in a line: Luminex, myc-captured LEPR protein.
The target in assay [4] is human LEPR CRH1 (D1)-MMH (human) (UniProt P48357). The experiment in a line: Luminex, myc-captured LEPR protein.
Assay [5] concerns the target human LEPR Ig (D3)-MMH (human) (UniProt P48357). The experiment in a line: Luminex, myc-captured LEPR protein.
For assay [6], the target named is human LEPR CRH1 (D1,D2,D3)-MMH (human) (UniProt P48357). Briefly: Luminex, myc-captured LEPR protein.
Assay [7] addresses human LEPR CRH2-MMH (human) (UniProt P48357). The experiment in a line: Luminex, myc-captured LEPR protein.
For assay [8], the target named is human LEPR CRH1 (D1,D2)-MMH (human) (UniProt P48357). The experiment in a line: Luminex, myc-captured LEPR protein.
The target of assay [9] is human LEPR Ig-CRH2-FNIII-MMH (human) (UniProt P48357). Briefly: Luminex, myc-captured LEPR protein.
The target in assay [10] is human LEPR FNIII-MMH (human) (UniProt P48357). Briefly: Luminex, myc-captured LEPR protein.
Chain of human LEPR FNIII-MMH (human) (P48357 636-839 limits assumed): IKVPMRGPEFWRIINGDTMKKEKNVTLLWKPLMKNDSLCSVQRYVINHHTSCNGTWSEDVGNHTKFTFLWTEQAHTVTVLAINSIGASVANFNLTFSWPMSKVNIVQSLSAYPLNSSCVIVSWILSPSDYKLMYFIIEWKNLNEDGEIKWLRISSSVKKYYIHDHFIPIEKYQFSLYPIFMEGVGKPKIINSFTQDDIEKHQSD
Assay [11] has as its target Mycx2-hLepR(ecto)-GPI anchored, on HEK293/hLEPR-GPI cells (human) (UniProt P48357). The experiment in a line: FACS, 10 nM Ab, HEK293/hLEPR-GPI, no added Leptin. In general terms: In flow cytometry, cells or beads pass a laser one at a time.
For assay [12] the target is unchanged. The experiment in a line: FACS, 10 nM Ab, HEK293/hLEPR-GPI, 1 uM Leptin.
For assay [13] the target is unchanged. The experiment in a line: FACS, 70 nM Ab, HEK293/hLEPR-GPI.
For assay [14], the target named is human LEPR extracellular domain expressed with a C-terminal myc-myc-hexahistidine tag (hLEPR.mmh) (human) (UniProt P48357). The experiment in a line: SPR, mAb captured, 25C.
Chain of human LEPR extracellular domain expressed with a C-terminal myc-myc-hexahistidine tag (hLEPR.mmh) (human) (P48357 other isoform, or with tags, fused parts or gaps): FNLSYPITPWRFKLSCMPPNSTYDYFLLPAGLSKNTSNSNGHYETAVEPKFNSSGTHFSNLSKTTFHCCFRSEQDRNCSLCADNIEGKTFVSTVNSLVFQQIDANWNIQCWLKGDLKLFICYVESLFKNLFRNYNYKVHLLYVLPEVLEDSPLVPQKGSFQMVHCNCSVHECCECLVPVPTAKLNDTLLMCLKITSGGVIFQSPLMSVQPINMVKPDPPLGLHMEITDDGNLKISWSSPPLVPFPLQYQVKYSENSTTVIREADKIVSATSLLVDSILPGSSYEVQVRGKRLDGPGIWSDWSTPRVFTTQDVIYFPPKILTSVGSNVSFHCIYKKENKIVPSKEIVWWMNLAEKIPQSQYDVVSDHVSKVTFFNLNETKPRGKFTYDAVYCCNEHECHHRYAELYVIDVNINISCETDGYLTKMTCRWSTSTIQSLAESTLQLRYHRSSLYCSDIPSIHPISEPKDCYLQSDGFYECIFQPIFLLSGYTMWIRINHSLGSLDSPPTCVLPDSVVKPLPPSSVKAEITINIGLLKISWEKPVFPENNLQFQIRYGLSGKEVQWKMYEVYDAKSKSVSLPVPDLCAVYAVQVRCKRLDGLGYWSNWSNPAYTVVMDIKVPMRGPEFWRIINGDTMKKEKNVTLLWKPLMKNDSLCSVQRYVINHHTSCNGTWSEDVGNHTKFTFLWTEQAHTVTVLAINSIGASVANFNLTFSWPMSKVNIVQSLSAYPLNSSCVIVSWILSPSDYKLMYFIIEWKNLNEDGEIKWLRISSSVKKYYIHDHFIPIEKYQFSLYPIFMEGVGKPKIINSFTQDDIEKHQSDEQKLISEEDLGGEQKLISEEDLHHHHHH
Assay [15] concerns the target human LEPR extracellular domain expressed with a C-terminal mouse IgG2a Fc tag (hLEPR.mFc) (human). Briefly: SPR, mAb captured, 25C.
In assay [16] the target is macaca fascicularis LEPR extracellular domain expressed with a C-terminal myc-myc-hexahistidine tag (mfLEPR.mmh) (Macaca fascicularis). The experiment in a line: SPR, mAb captured, 25C. (Surface plasmon resonance follows binding to a sensor surface in real time, without labels.)
Chain of macaca fascicularis LEPR extracellular domain expressed with a C-terminal myc-myc-hexahistidine tag (mfLEPR.mmh) (Macaca fascicularis) (Q9MYL0 other isoform, or with tags, fused parts or gaps): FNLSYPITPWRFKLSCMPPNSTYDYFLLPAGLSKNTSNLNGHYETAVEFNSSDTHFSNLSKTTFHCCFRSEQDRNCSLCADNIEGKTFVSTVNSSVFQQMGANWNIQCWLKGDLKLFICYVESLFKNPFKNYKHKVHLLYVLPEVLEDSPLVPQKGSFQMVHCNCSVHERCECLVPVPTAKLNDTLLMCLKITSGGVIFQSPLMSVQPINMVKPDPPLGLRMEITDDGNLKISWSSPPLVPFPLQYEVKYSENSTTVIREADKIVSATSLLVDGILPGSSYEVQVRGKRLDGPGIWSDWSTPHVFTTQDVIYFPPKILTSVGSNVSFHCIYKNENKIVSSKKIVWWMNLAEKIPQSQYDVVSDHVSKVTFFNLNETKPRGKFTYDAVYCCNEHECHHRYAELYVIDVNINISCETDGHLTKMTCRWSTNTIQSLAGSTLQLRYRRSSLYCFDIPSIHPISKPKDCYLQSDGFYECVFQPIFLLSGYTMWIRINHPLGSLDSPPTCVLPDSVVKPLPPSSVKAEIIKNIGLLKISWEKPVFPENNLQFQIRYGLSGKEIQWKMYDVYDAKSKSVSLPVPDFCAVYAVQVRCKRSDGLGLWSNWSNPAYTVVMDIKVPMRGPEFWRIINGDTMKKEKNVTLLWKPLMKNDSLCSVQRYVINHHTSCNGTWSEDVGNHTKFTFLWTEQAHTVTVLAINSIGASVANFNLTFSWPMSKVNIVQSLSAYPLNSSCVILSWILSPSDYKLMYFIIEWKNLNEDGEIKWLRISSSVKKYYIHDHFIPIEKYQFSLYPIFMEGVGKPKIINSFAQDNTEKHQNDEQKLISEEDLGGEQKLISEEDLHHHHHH
For assay [17], the target named is full length human LEPR (amino acids 1-1165 of P48357, Isoform B), on cells (human) (UniProt P48357). The experiment in a line: FACS, 70 nM Ab, HEK293/Stat3-luc/hLEPR-FL.
Assay [18] deals with human LEPR extracellular domain expressed with a C-terminal myc-myc-hexahistidine tag (hLEPR.mmh) (human) (UniProt P48357). Briefly: SPR, mAb captured, 37C.
Assay [19] concerns the target human LEPR extracellular domain expressed with a C-terminal mouse IgG2a Fc tag (hLEPR.mFc) (human). The experiment in a line: SPR, mAb captured, 37C.
Assay [20] deals with macaca fascicularis LEPR extracellular domain expressed with a C-terminal myc-myc-hexahistidine tag (mfLEPR.mmh) (Macaca fascicularis). The experiment in a line: SPR, mAb captured, 37C.

Chain of Mycx2-hLepR(ecto)-GPI anchored, on HEK293/hLEPR-GPI cells (human) (P48357 22-839): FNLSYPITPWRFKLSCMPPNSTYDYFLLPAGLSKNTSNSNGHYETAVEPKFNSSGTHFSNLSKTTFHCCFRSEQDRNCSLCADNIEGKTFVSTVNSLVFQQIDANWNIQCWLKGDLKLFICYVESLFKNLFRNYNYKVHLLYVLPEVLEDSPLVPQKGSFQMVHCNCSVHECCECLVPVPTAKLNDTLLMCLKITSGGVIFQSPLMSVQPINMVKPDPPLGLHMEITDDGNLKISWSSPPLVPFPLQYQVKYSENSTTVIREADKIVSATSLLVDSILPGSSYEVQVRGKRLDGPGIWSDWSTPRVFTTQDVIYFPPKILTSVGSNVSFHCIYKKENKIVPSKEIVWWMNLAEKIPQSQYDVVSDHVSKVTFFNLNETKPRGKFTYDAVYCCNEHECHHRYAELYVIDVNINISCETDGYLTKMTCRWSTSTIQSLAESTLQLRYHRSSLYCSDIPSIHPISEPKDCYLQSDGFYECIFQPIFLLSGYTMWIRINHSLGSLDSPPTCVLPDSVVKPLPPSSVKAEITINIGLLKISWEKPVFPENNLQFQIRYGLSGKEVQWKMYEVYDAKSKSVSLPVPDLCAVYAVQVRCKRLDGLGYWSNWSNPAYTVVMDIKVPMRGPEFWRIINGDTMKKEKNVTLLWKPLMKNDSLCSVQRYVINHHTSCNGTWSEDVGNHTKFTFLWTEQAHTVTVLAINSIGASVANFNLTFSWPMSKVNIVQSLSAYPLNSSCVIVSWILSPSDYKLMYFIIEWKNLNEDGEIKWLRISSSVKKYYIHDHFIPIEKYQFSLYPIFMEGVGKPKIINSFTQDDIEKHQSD
Chain of extracellular domain portion of LEPR protein expressed with a C-terminal human Fc tag (hLEPR.hFc) (human) (chain, as listed by the source limits assumed): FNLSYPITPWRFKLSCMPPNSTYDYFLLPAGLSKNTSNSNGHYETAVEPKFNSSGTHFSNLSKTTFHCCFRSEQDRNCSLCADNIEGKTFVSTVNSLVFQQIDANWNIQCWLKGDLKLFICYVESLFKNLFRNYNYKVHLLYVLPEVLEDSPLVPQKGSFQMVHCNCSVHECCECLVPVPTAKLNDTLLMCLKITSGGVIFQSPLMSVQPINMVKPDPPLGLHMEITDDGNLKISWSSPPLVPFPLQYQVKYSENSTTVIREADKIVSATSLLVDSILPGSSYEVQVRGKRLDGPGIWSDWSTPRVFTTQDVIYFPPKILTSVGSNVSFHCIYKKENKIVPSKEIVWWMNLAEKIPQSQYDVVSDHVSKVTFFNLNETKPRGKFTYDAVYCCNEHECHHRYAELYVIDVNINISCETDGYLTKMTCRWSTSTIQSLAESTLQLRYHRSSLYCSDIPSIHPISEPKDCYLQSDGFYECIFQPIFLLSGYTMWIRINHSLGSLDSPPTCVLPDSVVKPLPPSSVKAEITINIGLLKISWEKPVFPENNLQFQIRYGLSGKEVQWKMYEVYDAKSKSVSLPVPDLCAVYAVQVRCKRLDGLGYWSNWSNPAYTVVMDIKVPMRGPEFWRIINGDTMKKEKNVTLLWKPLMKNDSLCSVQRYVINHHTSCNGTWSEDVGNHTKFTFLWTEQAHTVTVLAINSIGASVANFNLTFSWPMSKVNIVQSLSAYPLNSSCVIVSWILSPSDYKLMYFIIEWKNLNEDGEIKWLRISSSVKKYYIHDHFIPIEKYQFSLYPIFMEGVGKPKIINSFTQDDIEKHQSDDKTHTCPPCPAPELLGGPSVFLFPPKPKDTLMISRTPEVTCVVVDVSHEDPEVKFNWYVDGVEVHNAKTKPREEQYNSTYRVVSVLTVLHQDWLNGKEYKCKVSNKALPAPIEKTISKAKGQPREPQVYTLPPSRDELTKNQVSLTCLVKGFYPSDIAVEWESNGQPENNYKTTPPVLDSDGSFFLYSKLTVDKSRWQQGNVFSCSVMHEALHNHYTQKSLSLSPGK
Chain of human LEPR extracellular domain expressed with a C-terminal mouse IgG2a Fc tag (hLEPR.mFc) (human) (chain, as listed by the source limits assumed): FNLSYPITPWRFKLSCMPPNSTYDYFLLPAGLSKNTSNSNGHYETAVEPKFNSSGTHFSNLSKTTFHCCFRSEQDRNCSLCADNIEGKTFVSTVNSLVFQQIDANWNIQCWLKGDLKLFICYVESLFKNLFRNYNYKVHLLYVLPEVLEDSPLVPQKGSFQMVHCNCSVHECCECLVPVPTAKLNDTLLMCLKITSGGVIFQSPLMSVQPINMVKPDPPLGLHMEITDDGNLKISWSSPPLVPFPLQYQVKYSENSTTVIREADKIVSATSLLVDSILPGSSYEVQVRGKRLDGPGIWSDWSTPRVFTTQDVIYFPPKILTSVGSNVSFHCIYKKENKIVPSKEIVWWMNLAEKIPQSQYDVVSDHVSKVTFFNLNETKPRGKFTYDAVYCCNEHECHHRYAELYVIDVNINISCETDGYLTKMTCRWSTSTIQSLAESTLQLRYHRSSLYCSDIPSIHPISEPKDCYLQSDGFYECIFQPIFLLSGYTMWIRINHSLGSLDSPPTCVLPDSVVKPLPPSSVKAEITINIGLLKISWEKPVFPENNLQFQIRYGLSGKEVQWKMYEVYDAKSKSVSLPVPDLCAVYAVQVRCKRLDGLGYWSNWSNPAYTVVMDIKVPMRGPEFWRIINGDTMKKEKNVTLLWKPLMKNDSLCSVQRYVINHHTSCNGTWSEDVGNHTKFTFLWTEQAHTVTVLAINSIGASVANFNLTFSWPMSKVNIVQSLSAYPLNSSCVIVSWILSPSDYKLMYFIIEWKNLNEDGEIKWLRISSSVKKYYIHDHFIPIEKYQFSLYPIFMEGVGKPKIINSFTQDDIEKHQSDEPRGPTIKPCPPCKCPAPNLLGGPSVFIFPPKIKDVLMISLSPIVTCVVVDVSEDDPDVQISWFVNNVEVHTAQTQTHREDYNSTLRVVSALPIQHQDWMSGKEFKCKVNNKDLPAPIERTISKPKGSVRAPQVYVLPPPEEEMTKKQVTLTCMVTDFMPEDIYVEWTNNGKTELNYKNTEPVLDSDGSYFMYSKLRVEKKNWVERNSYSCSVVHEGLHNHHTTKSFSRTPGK
Chain of human LEPR CRH2-MMH (human) (P48357 428-634 limits assumed): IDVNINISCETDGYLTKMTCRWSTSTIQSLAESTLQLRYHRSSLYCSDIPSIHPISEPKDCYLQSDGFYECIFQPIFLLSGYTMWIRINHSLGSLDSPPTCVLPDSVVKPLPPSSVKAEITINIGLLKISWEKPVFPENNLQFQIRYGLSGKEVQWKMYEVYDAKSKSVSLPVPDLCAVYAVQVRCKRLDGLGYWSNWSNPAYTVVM

As for Mouse IgG2a Isotype control (antibody), in assay [1], the % blockade came out at 32%.

As to “Comparator mAb (Fab9F8 described in Fazeli et al. 2006 and Carpenter et al. 2012) (antibody)”, in [1], the % blockade turned out to be 99%. Also, the Luminex MFI in assay [2] is 3910 MFI; in assay [3], 27 MFI; in assay [4], -14 MFI; in [5], 10 MFI; in assay [6] it was -57 MFI; in [7], 9400 MFI. The Luminex MFI in assay [8] was found to be 19 MFI; in assay [9], 7110 MFI; in [10], 73 MFI. In addition, the Binding Ratio in assay [11] is 2350 fold; in assay [12], 112 fold.

In the case of Isotype Control mAb (antibody), the Binding Ratio came to 2 fold in assay [13], 2 fold in assay [17], 6 fold in assay [11] and 4 fold in [12]. Moreover, the 100 nM hLEPR-MMH Bound (RU) in assay [14] came out at 4 RU; in assay [18] it was 6 RU. Also, the 100 nM hLEPR-mFc Bound (RU) in assay [15] was -2 RU; in assay [19], 1 RU. Moreover, the values for the 100 nM mfLEPR.MMH Bound (RU) in assay [16] and in assay [20] were 0 RU and 1 RU, respectively. In addition, in assay [1], the % blockade is -3%.
